Assay results as given in patent US20260209386A1 (MYTHIC THERAPEUTICS, published 2026).

T1: Human PTK7 Protein, His Tag (Acro Biosystems) (human, UniProt Q13308 31-704)
T1 construct: Bought His-tagged protein; also called CCK4; not shown: His tag
T1 sequence: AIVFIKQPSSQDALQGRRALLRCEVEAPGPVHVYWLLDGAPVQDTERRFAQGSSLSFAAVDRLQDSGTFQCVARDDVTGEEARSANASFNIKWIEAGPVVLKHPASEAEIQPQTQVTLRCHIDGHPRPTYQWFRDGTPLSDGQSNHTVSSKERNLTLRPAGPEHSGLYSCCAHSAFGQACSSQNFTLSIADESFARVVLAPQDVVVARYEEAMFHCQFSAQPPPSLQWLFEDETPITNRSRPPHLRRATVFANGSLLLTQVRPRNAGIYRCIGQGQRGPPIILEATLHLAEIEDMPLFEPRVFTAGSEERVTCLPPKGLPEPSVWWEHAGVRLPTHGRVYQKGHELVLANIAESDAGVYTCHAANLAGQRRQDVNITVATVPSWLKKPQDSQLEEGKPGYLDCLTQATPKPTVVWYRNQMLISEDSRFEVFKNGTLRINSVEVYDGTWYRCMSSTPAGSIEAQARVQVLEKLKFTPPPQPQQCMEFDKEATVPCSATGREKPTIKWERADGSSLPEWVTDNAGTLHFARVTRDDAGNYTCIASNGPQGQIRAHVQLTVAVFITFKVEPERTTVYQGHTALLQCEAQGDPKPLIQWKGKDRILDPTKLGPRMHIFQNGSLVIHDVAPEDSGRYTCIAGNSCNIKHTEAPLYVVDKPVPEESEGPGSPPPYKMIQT


target: T1, Human PTK7 Protein, His Tag (Acro …); assay: BLI (Octet), antibody on anti-human Fc sensor, 50 nM PTK7; grade 2 = substantially similar binding relative to parent

| Binder | binding result |
| --- | --- |
| MYT11052 (antibody, V domains shown, MYT9361 HC variant) VH: EVQLVESGGGLVQPGGSLRLSCTASGLSLSSYWMSWVRQAPGKGLEWVGVISAGGNTYYANWAKHRFTISRDTSKNTVYLQMNSLRAEDTAVYFCARGDDGYTNAAYVSNLWGQGTLVTVSS VL: EIVMTQSPSTLSASVGDRVIITCQASQSISSWLSWYQQKPGKAPKLLIYKASTLASGVPSRFSGSGSGAEFTLTISSLQPDDFATYYCQSYFDSTTIAFGQGTKLTVL | binds |
| MYT11054 (antibody, V domains shown) VH: EVQLVESGGGLVQPGGSLRLSCTASGLSLSSYWMSWVRQAPGKGLEWVGVISAGGNTYYANWAKGRFTISRDTSKNTVYLQMNSLRAEDTAVYFCAHGDDGYTNAAYVSNLWGQGTLVTVSS VL: EIVMTQSPSTLSASVGDRVIITCQASQSISSWLSWYQQKPGKAPKLLIYKASTLASGVPSRFSGSGSGAEFTLTISSLQPDDFATYYCQSYFDSTTIAFGQGTKLTVL | binds |
| MYT11055 (antibody, V domains shown, MYT9361 HC variant) VH: EVQLVESGGGLVQPGGSLRLSCTASGLSLSSYWMSWVRQAPGKGLEWVGVISAGGNTYYANWAKGRFTISRDTSKNTVYLQMNSLRAEDTAVYFCARHDDGYTNAAYVSNLWGQGTLVTVSS VL: EIVMTQSPSTLSASVGDRVIITCQASQSISSWLSWYQQKPGKAPKLLIYKASTLASGVPSRFSGSGSGAEFTLTISSLQPDDFATYYCQSYFDSTTIAFGQGTKLTVL | binds |
| MYT11057 (antibody, V domains shown, MYT9361 HC variant) VH: EVQLVESGGGLVQPGGSLRLSCTASGLSLSSYWMSWVRQAPGKGLEWVGVISAGGNTYYANWAKGRFTISRDTSKNTVYLQMNSLRAEDTAVYFCARGDHGYTNAAYVSNLWGQGTLVTVSS VL: EIVMTQSPSTLSASVGDRVIITCQASQSISSWLSWYQQKPGKAPKLLIYKASTLASGVPSRFSGSGSGAEFTLTISSLQPDDFATYYCQSYFDSTTIAFGQGTKLTVL | binds |
| MYT11060 (antibody, V domains shown, MYT9361 HC variant) VH: EVQLVESGGGLVQPGGSLRLSCTASGLSLSSYWMSWVRQAPGKGLEWVGVISAGGNTYYANWAKGRFTISRDTSKNTVYLQMNSLRAEDTAVYFCARGDDGYHNAAYVSNLWGQGTLVTVSS VL: EIVMTQSPSTLSASVGDRVIITCQASQSISSWLSWYQQKPGKAPKLLIYKASTLASGVPSRFSGSGSGAEFTLTISSLQPDDFATYYCQSYFDSTTIAFGQGTKLTVL | binds |
| MYT11061 (antibody, V domains shown, MYT9361 HC variant) VH: EVQLVESGGGLVQPGGSLRLSCTASGLSLSSYWMSWVRQAPGKGLEWVGVISAGGNTYYANWAKGRFTISRDTSKNTVYLQMNSLRAEDTAVYFCARGDDGYTHAAYVSNLWGQGTLVTVSS VL: EIVMTQSPSTLSASVGDRVIITCQASQSISSWLSWYQQKPGKAPKLLIYKASTLASGVPSRFSGSGSGAEFTLTISSLQPDDFATYYCQSYFDSTTIAFGQGTKLTVL | binds |
| MYT11062 (antibody, V domains shown, MYT9361 HC variant) VH: EVQLVESGGGLVQPGGSLRLSCTASGLSLSSYWMSWVRQAPGKGLEWVGVISAGGNTYYANWAKGRFTISRDTSKNTVYLQMNSLRAEDTAVYFCARGDDGYTNHAYVSNLWGQGTLVTVSS VL: EIVMTQSPSTLSASVGDRVIITCQASQSISSWLSWYQQKPGKAPKLLIYKASTLASGVPSRFSGSGSGAEFTLTISSLQPDDFATYYCQSYFDSTTIAFGQGTKLTVL | binds |
| MYT11064 (antibody, V domains shown, MYT9361 HC variant) VH: EVQLVESGGGLVQPGGSLRLSCTASGLSLSSYWMSWVRQAPGKGLEWVGVISAGGNTYYANWAKGRFTISRDTSKNTVYLQMNSLRAEDTAVYFCARGDDGYTNAAHVSNLWGQGTLVTVSS VL: EIVMTQSPSTLSASVGDRVIITCQASQSISSWLSWYQQKPGKAPKLLIYKASTLASGVPSRFSGSGSGAEFTLTISSLQPDDFATYYCQSYFDSTTIAFGQGTKLTVL | binds |
| MYT11065 (antibody, V domains shown, MYT9361 HC variant) VH: EVQLVESGGGLVQPGGSLRLSCTASGLSLSSYWMSWVRQAPGKGLEWVGVISAGGNTYYANWAKGRFTISRDTSKNTVYLQMNSLRAEDTAVYFCARGDDGYTNAAYHSNLWGQGTLVTVSS VL: EIVMTQSPSTLSASVGDRVIITCQASQSISSWLSWYQQKPGKAPKLLIYKASTLASGVPSRFSGSGSGAEFTLTISSLQPDDFATYYCQSYFDSTTIAFGQGTKLTVL | binds |
| MYT11066 (antibody, V domains shown, MYT9361 HC variant) VH: EVQLVESGGGLVQPGGSLRLSCTASGLSLSSYWMSWVRQAPGKGLEWVGVISAGGNTYYANWAKGRFTISRDTSKNTVYLQMNSLRAEDTAVYFCARGDDGYTNAAYVHNLWGQGTLVTVSS VL: EIVMTQSPSTLSASVGDRVIITCQASQSISSWLSWYQQKPGKAPKLLIYKASTLASGVPSRFSGSGSGAEFTLTISSLQPDDFATYYCQSYFDSTTIAFGQGTKLTVL | binds |
| MYT11067 (antibody, V domains shown, MYT9361 HC variant) VH: EVQLVESGGGLVQPGGSLRLSCTASGLSLSSYWMSWVRQAPGKGLEWVGVISAGGNTYYANWAKGRFTISRDTSKNTVYLQMNSLRAEDTAVYFCARGDDGYTNAAYVSHLWGQGTLVTVSS VL: EIVMTQSPSTLSASVGDRVIITCQASQSISSWLSWYQQKPGKAPKLLIYKASTLASGVPSRFSGSGSGAEFTLTISSLQPDDFATYYCQSYFDSTTIAFGQGTKLTVL | binds |
| MYT11070 (antibody, V domains shown, MYT9361 HC alanine variant) VH: EVQLVESGGGLVQPGGSLRLSCTASGLSLSSYWMSWVRQAPGKGLEWVGVISAGGNTYYANWAKGRFTISRDTSKNTVYLQMNSLRAEDTAVYFCARGADGYTNAAYVSNLWGQGTLVTVSS VL: EIVMTQSPSTLSASVGDRVIITCQASQSISSWLSWYQQKPGKAPKLLIYKASTLASGVPSRFSGSGSGAEFTLTISSLQPDDFATYYCQSYFDSTTIAFGQGTKLTVL | binds |
| MYT11071 (antibody, V domains shown, MYT9361 HC alanine variant) VH: EVQLVESGGGLVQPGGSLRLSCTASGLSLSSYWMSWVRQAPGKGLEWVGVISAGGNTYYANWAKGRFTISRDTSKNTVYLQMNSLRAEDTAVYFCARGDAGYTNAAYVSNLWGQGTLVTVSS VL: EIVMTQSPSTLSASVGDRVIITCQASQSISSWLSWYQQKPGKAPKLLIYKASTLASGVPSRFSGSGSGAEFTLTISSLQPDDFATYYCQSYFDSTTIAFGQGTKLTVL | binds |
| MYT11072 (antibody, V domains shown, MYT9361 LC variant) VH: EVQLVESGGGLVQPGGSLRLSCTASGLSLSSYWMSWVRQAPGKGLEWVGVISAGGNTYYANWAKGRFTISRDTSKNTVYLQMNSLRAEDTAVYFCARGDDGYTNAAYVSNLWGQGTLVTVSS VL: EIVMTQSPSTLSASVGDRVIITCHASQSISSWLSWYQQKPGKAPKLLIYKASTLASGVPSRFSGSGSGAEFTLTISSLQPDDFATYYCQSYFDSTTIAFGQGTKLTVL | binds |
| MYT11073 (antibody, V domains shown, MYT9361 LC variant) VH: EVQLVESGGGLVQPGGSLRLSCTASGLSLSSYWMSWVRQAPGKGLEWVGVISAGGNTYYANWAKGRFTISRDTSKNTVYLQMNSLRAEDTAVYFCARGDDGYTNAAYVSNLWGQGTLVTVSS VL: EIVMTQSPSTLSASVGDRVIITCQHSQSISSWLSWYQQKPGKAPKLLIYKASTLASGVPSRFSGSGSGAEFTLTISSLQPDDFATYYCQSYFDSTTIAFGQGTKLTVL | binds |
| MYT11074 (antibody, V domains shown, MYT9361 LC variant) VH: EVQLVESGGGLVQPGGSLRLSCTASGLSLSSYWMSWVRQAPGKGLEWVGVISAGGNTYYANWAKGRFTISRDTSKNTVYLQMNSLRAEDTAVYFCARGDDGYTNAAYVSNLWGQGTLVTVSS VL: EIVMTQSPSTLSASVGDRVIITCQAHQSISSWLSWYQQKPGKAPKLLIYKASTLASGVPSRFSGSGSGAEFTLTISSLQPDDFATYYCQSYFDSTTIAFGQGTKLTVL | binds |
| MYT11075 (antibody, V domains shown, MYT9361 LC variant) VH: EVQLVESGGGLVQPGGSLRLSCTASGLSLSSYWMSWVRQAPGKGLEWVGVISAGGNTYYANWAKGRFTISRDTSKNTVYLQMNSLRAEDTAVYFCARGDDGYTNAAYVSNLWGQGTLVTVSS VL: EIVMTQSPSTLSASVGDRVIITCQASHSISSWLSWYQQKPGKAPKLLIYKASTLASGVPSRFSGSGSGAEFTLTISSLQPDDFATYYCQSYFDSTTIAFGQGTKLTVL | binds |
| MYT11076 (antibody, V domains shown, MYT9361 LC variant) VH: EVQLVESGGGLVQPGGSLRLSCTASGLSLSSYWMSWVRQAPGKGLEWVGVISAGGNTYYANWAKGRFTISRDTSKNTVYLQMNSLRAEDTAVYFCARGDDGYTNAAYVSNLWGQGTLVTVSS VL: EIVMTQSPSTLSASVGDRVIITCQASQHISSWLSWYQQKPGKAPKLLIYKASTLASGVPSRFSGSGSGAEFTLTISSLQPDDFATYYCQSYFDSTTIAFGQGTKLTVL | binds |
| MYT11080 (antibody, V domains shown, MYT9361 LC variant) VH: EVQLVESGGGLVQPGGSLRLSCTASGLSLSSYWMSWVRQAPGKGLEWVGVISAGGNTYYANWAKGRFTISRDTSKNTVYLQMNSLRAEDTAVYFCARGDDGYTNAAYVSNLWGQGTLVTVSS VL: EIVMTQSPSTLSASVGDRVIITCQASQSISSHLSWYQQKPGKAPKLLIYKASTLASGVPSRFSGSGSGAEFTLTISSLQPDDFATYYCQSYFDSTTIAFGQGTKLTVL | binds |
